The values below are quoted from earlier work in article PMC2866048.

Usually Kd stands for the free concentration of one partner at which half of the binding sites on the other are occupied at equilibrium, for simple one-to-one binding.

The target in this series is F-actin (Oryctolagus cuniculus) (UniProt P68135).

In the case of drebrin (from UniProt Q16643), the Kd is 0.12 µM.
